Experimental data from article PMC10658506, “An engineered interleukin‐11 decoy cytokine inhibits receptor signaling and proliferation in lung adenocarcinoma” (Bioengineering & Translational Medicine, 2023).

T1: biotinylated IL-11R-Fc (human, UniProt Q14626 24-370, biotin)
T1 construct: interleukin-11 receptor (IL-11R), human, Fc fusion; source: bought: Acro, ILR-H82F5
T1 sequence (looked up): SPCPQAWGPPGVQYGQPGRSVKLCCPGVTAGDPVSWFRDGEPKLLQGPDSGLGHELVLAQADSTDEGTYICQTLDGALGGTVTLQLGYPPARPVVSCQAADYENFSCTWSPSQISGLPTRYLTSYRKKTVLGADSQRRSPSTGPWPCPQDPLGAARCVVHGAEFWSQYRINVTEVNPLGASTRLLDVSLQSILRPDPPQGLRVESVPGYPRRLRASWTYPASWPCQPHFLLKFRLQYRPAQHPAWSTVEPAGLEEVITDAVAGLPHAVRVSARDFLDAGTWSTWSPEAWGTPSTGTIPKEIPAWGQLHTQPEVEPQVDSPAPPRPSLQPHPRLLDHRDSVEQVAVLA

T2: mIL-11R-mFc (mouse, UniProt Q64385 24-372)
T2 construct: interleukin-11 receptor, mouse (mIL-11R), mouse Fc fusion; also called mouse IL-11R; source: bought: R&D Systems, 7405-MR
T2 sequence (looked up): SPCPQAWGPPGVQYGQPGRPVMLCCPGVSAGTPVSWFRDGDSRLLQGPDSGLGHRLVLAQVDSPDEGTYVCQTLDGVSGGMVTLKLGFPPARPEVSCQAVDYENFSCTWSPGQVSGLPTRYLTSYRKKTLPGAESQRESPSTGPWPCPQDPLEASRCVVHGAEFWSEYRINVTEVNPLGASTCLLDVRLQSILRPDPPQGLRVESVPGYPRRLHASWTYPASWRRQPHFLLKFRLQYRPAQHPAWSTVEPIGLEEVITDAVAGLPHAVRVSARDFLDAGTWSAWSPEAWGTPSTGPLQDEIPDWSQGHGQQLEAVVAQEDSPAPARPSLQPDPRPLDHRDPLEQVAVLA

T3: soluble mouse IL-11 receptor (mouse, UniProt Q64385 24-372)
T3 construct: interleukin-11 receptor, mouse (mIL-11R), soluble; also called mIL-11R; source: bought: Sino Biological, 50,075-M08H-100
T3 sequence (looked up): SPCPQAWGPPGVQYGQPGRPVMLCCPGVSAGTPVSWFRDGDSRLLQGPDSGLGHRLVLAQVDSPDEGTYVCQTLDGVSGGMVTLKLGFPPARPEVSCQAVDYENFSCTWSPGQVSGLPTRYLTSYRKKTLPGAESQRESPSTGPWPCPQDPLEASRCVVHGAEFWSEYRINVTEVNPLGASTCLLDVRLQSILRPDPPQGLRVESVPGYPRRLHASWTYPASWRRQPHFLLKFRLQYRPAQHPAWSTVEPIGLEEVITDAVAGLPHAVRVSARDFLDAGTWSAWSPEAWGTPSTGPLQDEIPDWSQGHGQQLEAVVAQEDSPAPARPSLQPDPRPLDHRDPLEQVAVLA


Tests used:
biotinylated IL-11R-Fc = target: T1, biotinylated IL-11R-Fc; experiment: BLI; biotinylated IL-11R-Fc loaded on streptavidin biosensors at 1.25 ug/mL in kinetics buffer; three-fold serial dilutions of WT IL-11 or enIL-11; apparent Kd; binding to enIL-11 performed by Antibody Solutions; conditions: both partners purified
mIL-11R-mFc = target: T2, mIL-11R-mFc; experiment: BLI; mIL-11R-mFc loaded on antimouse Fc biosensors at 1.25 ug/mL in kinetics buffer; three-fold serial dilutions of WT IL-11 or enIL-11; apparent Kd; binding to enIL-11 performed by Antibody Solutions; conditions: both partners purified
[1] = target: T3, soluble mouse IL-11 receptor; experiment: flow cytometry on cells; yeast-displayed IL-11 variants incubated with varying concentrations of soluble IL-11R or mIL-11R overnight at room temperature, washed with BPBS; receptor detected with anti-his AF647, display with anti-c-myc; apparent Kd from the fraction bound of the expressing population; conditions: one partner purified

| Kd (biotinylated IL-11R-Fc) [nM] | Kd (mIL-11R-mFc) [nM] | Kd [1] [nM] | Binder |
| --- | --- | --- | --- |
| 9.5 ± 0.3 | 11 ± 0.3 | – | soluble recombinant wild-type human IL-11 (ligand, interleukin-11 (IL-11), human; also called WT IL-11; IL-11 WT; source: E. coli BL21, purified (cobalt beads), cleaved with TEV protease; not shown: His6, N-terminal, cleaved; thioredoxin, N-terminal, cleaved) SPDPRAELDSTVLLTRSLLADTRQLAAQLRDKFPADGDHNLDSLPTLAMSAGALGALQLPGVLTRLRADLLSYLRHVQWLRRAGGSSLKTLEPELGTLQARLDRLLRRLQLLMSRLALPQPPPDPPAPPLAPPSSAWGGIRAAHAILGGLHLTLDWAVRGLLLLKTRL |
| 0.41 ± 0.01 | 0.16 ± 0.01 | – | enIL-11 (engineered human IL-11, GIPR RA S60T), soluble (designed binder, interleukin-11 (IL-11), human; source: E. coli BL21, purified (cobalt beads), cleaved with TEV protease; not shown: His6, N-terminal, cleaved; thioredoxin, N-terminal, cleaved) SPDPRAELGSIVLRTRSLLADTRQLAAQLRDKFPADGDHNLDSLPTPAMTARALGALQLPGVLTRLRADLLSYLRHVQWLRRAGGSSLKTLEPELGTLQARLDRLLRRLQLLMSRLALPQPPPDPPAPPLAPPSSAAGGIRAAHAILGGLHLTLDWAVRGLLLLKTRL |
| – | – | 3.1 ± 0.8 | yeast-displayed mouse IL-11 wild-type (ligand, UniProt P47873 22-199, looked up, interleukin-11, mouse; also called mIL-11; mIL-11 WT; not shown: c-myc, C-terminal, kept) PGPPAGSPRVSSDPRADLDSAVLLTRSLLADTRQLAAQMRDKFPADGDHSLDSLPTLAMSAGTLGSLQLPGVLTRLRVDLMSYLRHVQWLRRAGGPSLKTLEPELGALQARLERLLRRLQLLMSRLALPQAAPDQPVIPLGPPASAWGSIRAAHAILGGLHLTLDWAVRGLLLLKTRL |
| – | – | 2.2 ± 0.3 | yeast-displayed wild-type human IL-11 (ligand, UniProt P20809 22-199, looked up, interleukin-11 (IL-11), human, residues Pro22 to Leu199 of the precursor; also called IL-11 WT; WT IL-11; not shown: c-myc, C-terminal, kept) PGPPPGPPRVSPDPRAELDSTVLLTRSLLADTRQLAAQLRDKFPADGDHNLDSLPTLAMSAGALGALQLPGVLTRLRADLLSYLRHVQWLRRAGGSSLKTLEPELGTLQARLDRLLRRLQLLMSRLALPQPPPDPPAPPLAPPSSAWGGIRAAHAILGGLHLTLDWAVRGLLLLKTRL |
